B1: PRKC apoptosis WT1 regulator protein (Homo sapiens), Q96IZ0 (parent)
chain: MATGGYRTSSGLGGSTTDFLEEWKAKREKMRAKQNPPGPAPPGGGSSDAAGKPPAGALGTPAAAAANELNNNLPGGAPAAPAVPGPGGVNCAVGSAMLTRAAPGPRRSEDEPPAASASAAPPPQRDEEEPDGVPEKGKSSGPSARKGKGQIEKRKLREKRRSTGVVNIPAAECLDEYEDDEAGQKERKREDAITQQNTIQNEAVNLLDPGSSYLLQEPPRTVSGRYKSTTSVSEEDVSSRYSRTDRSGFPRYNRDANVSGTLVSSSTLEKKIEDLEKEVVRERQENLRLVRLMQDKEEMIGKLKEEIDLLNRDLDDIEDENEQLKQENKTLLKVVGQLTR
partner: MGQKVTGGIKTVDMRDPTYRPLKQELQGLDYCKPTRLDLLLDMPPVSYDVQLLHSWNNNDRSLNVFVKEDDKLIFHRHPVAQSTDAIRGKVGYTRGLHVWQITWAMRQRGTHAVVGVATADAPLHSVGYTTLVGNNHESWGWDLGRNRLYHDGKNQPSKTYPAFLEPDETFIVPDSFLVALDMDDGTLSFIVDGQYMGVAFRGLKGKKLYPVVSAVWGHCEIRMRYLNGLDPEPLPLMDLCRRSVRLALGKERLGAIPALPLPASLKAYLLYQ
B2: PRKC apoptosis WT1 regulator protein (Homo sapiens), Q96IZ0 (parent)
chain: B1 chain

The variants in one assay derive from B1. The settings on record: with spsb1_mouse Spsb1, Q9D5L7.
Regarding MATGGYRTSSGLGGSTTDFLEEWKAKREKMRAKQNPPGPAPPGGGSSDAAGKPPAGALGTPAAAAANELNANLPGGAPAAPAVPGPGGVNCAVGSAMLTRAAPGPRRSEDEPPAASASAAPPPQRDEEEPDGVPEKGKSSGPSARKGKGQIEKRKLREKRRSTGVVNIPAAECLDEYEDDEAGQKERKREDAITQQNTIQNEAVNLLDPGSSYLLQEPPRTVSGRYKSTTSVSEEDVSSRYSRTDRSGFPRYNRDANVSGTLVSSSTLEKKIEDLEKEVVRERQENLRLVRLMQDKEEMIGKLKEEIDLLNRDLDDIEDENEQLKQENKTLLKVVGQLTR [N71A], the “effect of a mutation on the interaction” value is “disrupting interaction”. MATGGYRTSSGLGGSTTDFLEEWKAKREKMRAKQNPPGPAPPGGGSSDAAGKPPAGALGTPAAAAANELANNLPGGAPAAPAVPGPGGVNCAVGSAMLTRAAPGPRRSEDEPPAASASAAPPPQRDEEEPDGVPEKGKSSGPSARKGKGQIEKRKLREKRRSTGVVNIPAAECLDEYEDDEAGQKERKREDAITQQNTIQNEAVNLLDPGSSYLLQEPPRTVSGRYKSTTSVSEEDVSSRYSRTDRSGFPRYNRDANVSGTLVSSSTLEKKIEDLEKEVVRERQENLRLVRLMQDKEEMIGKLKEEIDLLNRDLDDIEDENEQLKQENKTLLKVVGQLTR [N70A]: the “effect of a mutation on the interaction” value is listed as “disrupting interaction”.

Turning to MATGGYRTSSGLGGSTTDFLEEWKAKREKMRAKQNPPGPAPPGGGSSDAAGKPPAGALGTPAAAAANDINNNLPGGAPAAPAVPGPGGVNCAVGSAMLTRAAPGPRRSEDEPPAASASAAPPPQRDEEEPDGVPEKGKSSGPSARKGKGQIEKRKLREKRRSTGVVNIPAAECLDEYEDDEAGQKERKREDAITQQNTIQNEAVNLLDPGSSYLLQEPPRTVSGRYKSTTSVSEEDVSSRYSRTDRSGFPRYNRDANVSGTLVSSSTLEKKIEDLEKEVVRERQENLRLVRLMQDKEEMIGKLKEEIDLLNRDLDDIEDENEQLKQENKTLLKVVGQLTR [E68D;L69I], the “effect of a mutation on the interaction” value is “increasing interaction”.

The next assay covers variants of B2. The settings on record: with spsb2_mouse Spsb2, O88838.
spsb2_mouse Spsb2, O88838, sequence (O88838 whole entry): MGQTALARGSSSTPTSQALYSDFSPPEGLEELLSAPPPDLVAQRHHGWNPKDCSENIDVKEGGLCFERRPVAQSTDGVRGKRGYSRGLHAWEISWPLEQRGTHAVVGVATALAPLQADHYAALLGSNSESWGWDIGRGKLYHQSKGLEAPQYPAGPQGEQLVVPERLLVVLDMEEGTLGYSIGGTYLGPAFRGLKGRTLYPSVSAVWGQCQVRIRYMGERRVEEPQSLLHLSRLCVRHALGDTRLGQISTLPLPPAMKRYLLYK
Take MATGGYRTSSGLGGSTTDFLEEWKAKREKMRAKQNPPGPAPPGGGSSDAAGKPPAGALGTPAAAAANELNANLPGGAPAAPAVPGPGGVNCAVGSAMLTRAAPGPRRSEDEPPAASASAAPPPQRDEEEPDGVPEKGKSSGPSARKGKGQIEKRKLREKRRSTGVVNIPAAECLDEYEDDEAGQKERKREDAITQQNTIQNEAVNLLDPGSSYLLQEPPRTVSGRYKSTTSVSEEDVSSRYSRTDRSGFPRYNRDANVSGTLVSSSTLEKKIEDLEKEVVRERQENLRLVRLMQDKEEMIGKLKEEIDLLNRDLDDIEDENEQLKQENKTLLKVVGQLTR [N71A]: the “effect of a mutation on the interaction” value was “disrupting interaction”. With MATGGYRTSSGLGGSTTDFLEEWKAKREKMRAKQNPPGPAPPGGGSSDAAGKPPAGALGTPAAAAANDLNNNLPGGAPAAPAVPGPGGVNCAVGSAMLTRAAPGPRRSEDEPPAASASAAPPPQRDEEEPDGVPEKGKSSGPSARKGKGQIEKRKLREKRRSTGVVNIPAAECLDEYEDDEAGQKERKREDAITQQNTIQNEAVNLLDPGSSYLLQEPPRTVSGRYKSTTSVSEEDVSSRYSRTDRSGFPRYNRDANVSGTLVSSSTLEKKIEDLEKEVVRERQENLRLVRLMQDKEEMIGKLKEEIDLLNRDLDDIEDENEQLKQENKTLLKVVGQLTR [E68D], the “effect of a mutation on the interaction” value is reported as “increasing interaction”. For the variant MATGGYRTSSGLGGSTTDFLEEWKAKREKMRAKQNPPGPAPPGGGSSDAAGKPPAGALGTPAAAAANELANNLPGGAPAAPAVPGPGGVNCAVGSAMLTRAAPGPRRSEDEPPAASASAAPPPQRDEEEPDGVPEKGKSSGPSARKGKGQIEKRKLREKRRSTGVVNIPAAECLDEYEDDEAGQKERKREDAITQQNTIQNEAVNLLDPGSSYLLQEPPRTVSGRYKSTTSVSEEDVSSRYSRTDRSGFPRYNRDANVSGTLVSSSTLEKKIEDLEKEVVRERQENLRLVRLMQDKEEMIGKLKEEIDLLNRDLDDIEDENEQLKQENKTLLKVVGQLTR [N70A], the “effect of a mutation on the interaction” value is on record as “disrupting interaction”.

The variants in the next assay derive from B2. The conditions noted are these: with spsb4_mouse Spsb4, Q8R5B6.
spsb4_mouse Spsb4, Q8R5B6, sequence (Q8R5B6 whole entry): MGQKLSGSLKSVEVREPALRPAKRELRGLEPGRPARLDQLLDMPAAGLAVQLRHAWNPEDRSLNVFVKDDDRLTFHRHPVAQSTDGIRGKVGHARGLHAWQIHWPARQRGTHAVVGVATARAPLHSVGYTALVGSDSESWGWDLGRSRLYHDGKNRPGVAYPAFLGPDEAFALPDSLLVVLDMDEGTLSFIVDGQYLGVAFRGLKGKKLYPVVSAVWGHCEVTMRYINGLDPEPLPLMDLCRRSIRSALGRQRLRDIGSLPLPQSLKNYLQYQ
On to MATGGYRTSSGLGGSTTDFLEEWKAKREKMRAKQNPPGPAPPGGGSSDAAGKPPAGALGTPAAAAANELNANLPGGAPAAPAVPGPGGVNCAVGSAMLTRAAPGPRRSEDEPPAASASAAPPPQRDEEEPDGVPEKGKSSGPSARKGKGQIEKRKLREKRRSTGVVNIPAAECLDEYEDDEAGQKERKREDAITQQNTIQNEAVNLLDPGSSYLLQEPPRTVSGRYKSTTSVSEEDVSSRYSRTDRSGFPRYNRDANVSGTLVSSSTLEKKIEDLEKEVVRERQENLRLVRLMQDKEEMIGKLKEEIDLLNRDLDDIEDENEQLKQENKTLLKVVGQLTR [N71A], for which the “effect of a mutation on the interaction” value was “disrupting interaction”. Still for that read-out and setting: the result for MATGGYRTSSGLGGSTTDFLEEWKAKREKMRAKQNPPGPAPPGGGSSDAAGKPPAGALGTPAAAAANDLNNNLPGGAPAAPAVPGPGGVNCAVGSAMLTRAAPGPRRSEDEPPAASASAAPPPQRDEEEPDGVPEKGKSSGPSARKGKGQIEKRKLREKRRSTGVVNIPAAECLDEYEDDEAGQKERKREDAITQQNTIQNEAVNLLDPGSSYLLQEPPRTVSGRYKSTTSVSEEDVSSRYSRTDRSGFPRYNRDANVSGTLVSSSTLEKKIEDLEKEVVRERQENLRLVRLMQDKEEMIGKLKEEIDLLNRDLDDIEDENEQLKQENKTLLKVVGQLTR [E68D] reads “increasing interaction”. The same measure, in the same setting: for MATGGYRTSSGLGGSTTDFLEEWKAKREKMRAKQNPPGPAPPGGGSSDAAGKPPAGALGTPAAAAANELANNLPGGAPAAPAVPGPGGVNCAVGSAMLTRAAPGPRRSEDEPPAASASAAPPPQRDEEEPDGVPEKGKSSGPSARKGKGQIEKRKLREKRRSTGVVNIPAAECLDEYEDDEAGQKERKREDAITQQNTIQNEAVNLLDPGSSYLLQEPPRTVSGRYKSTTSVSEEDVSSRYSRTDRSGFPRYNRDANVSGTLVSSSTLEKKIEDLEKEVVRERQENLRLVRLMQDKEEMIGKLKEEIDLLNRDLDDIEDENEQLKQENKTLLKVVGQLTR [N70A] the value was “disrupting interaction”.
